Experimental data reported in US20220056092A1.
Values belong to the substance of their own block, whether it stands above or below them.

Biological target: IL12 receptor on bystander (GFP+) T cells (human) (UniProt P42701)
Experiment: cell-based or functional assay

Chain of secreted IL12 encoded by OT-001356 (ORF2: p40 signal sequence; p40 (23-328 of WT); Linker ((G4S)3); p35 (57-253 of WT); BamHI (GS)) (ligand) (chain): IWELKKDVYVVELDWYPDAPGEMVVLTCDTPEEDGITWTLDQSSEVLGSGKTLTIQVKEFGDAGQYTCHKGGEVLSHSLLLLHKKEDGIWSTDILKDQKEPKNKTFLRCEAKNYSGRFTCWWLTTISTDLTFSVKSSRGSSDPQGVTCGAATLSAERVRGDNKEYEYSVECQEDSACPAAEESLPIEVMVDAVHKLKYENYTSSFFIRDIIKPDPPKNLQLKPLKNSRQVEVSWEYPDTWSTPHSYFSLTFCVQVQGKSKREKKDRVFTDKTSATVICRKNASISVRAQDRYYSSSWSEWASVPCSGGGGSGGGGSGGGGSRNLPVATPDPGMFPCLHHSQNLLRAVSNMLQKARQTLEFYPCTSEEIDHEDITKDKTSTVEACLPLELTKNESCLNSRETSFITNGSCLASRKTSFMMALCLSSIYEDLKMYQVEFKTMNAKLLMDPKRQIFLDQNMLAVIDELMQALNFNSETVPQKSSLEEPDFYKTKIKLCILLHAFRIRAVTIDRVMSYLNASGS
Chain of IL12 receptor on bystander (GFP+) T cells (human) (Q99665 24-862, chain 2 of 2, other chains not shown): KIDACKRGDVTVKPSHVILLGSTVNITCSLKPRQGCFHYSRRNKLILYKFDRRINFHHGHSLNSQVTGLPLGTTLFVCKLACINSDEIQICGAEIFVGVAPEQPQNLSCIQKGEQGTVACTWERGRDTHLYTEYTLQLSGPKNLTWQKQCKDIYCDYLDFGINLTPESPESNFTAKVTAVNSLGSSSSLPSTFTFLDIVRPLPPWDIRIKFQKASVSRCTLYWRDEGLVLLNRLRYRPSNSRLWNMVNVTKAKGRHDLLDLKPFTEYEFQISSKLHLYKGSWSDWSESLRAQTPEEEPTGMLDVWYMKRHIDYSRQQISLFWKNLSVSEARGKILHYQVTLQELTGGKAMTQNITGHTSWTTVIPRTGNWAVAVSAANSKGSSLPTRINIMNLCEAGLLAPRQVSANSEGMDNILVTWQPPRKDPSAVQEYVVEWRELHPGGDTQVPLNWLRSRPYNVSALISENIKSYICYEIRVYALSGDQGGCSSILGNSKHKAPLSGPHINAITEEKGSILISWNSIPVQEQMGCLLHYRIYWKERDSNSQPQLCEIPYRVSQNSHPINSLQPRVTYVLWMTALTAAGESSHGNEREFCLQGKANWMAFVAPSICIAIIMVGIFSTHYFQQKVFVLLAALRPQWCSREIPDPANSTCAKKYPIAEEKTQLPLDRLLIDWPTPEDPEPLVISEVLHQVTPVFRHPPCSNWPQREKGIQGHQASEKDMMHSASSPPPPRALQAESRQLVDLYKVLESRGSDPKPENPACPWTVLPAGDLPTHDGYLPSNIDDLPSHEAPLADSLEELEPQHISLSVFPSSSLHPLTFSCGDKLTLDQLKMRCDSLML

Substance: membrane bound IL12 encoded by OT-001895 (p40 (23-328 of WT); (G4S)3; p35 (57-253 of WT); (GS)15; CD8a Hinge and Transmembrane Domain; GS) (ligand)
Bystander effect (pSTAT4 geometric MFI on GFP+ T cells in 1 hour supernatants), ratio 1.1 (geometric MFI): -136 | Bystander effect (pSTAT4 geometric MFI on GFP+ T cells in 1 hour supernatants), ratio 2.1 (geometric MFI): -238 | Bystander effect (pSTAT4 geometric MFI on GFP+ T cells in 1 hour supernatants), ratio 4.3 (geometric MFI): -277 | Bystander effect (pSTAT4 geometric MFI on GFP+ T cells in 1 hour supernatants), ratio 8.5 (geometric MFI): -1180 | Bystander effect (pSTAT4 geometric MFI on GFP+ T cells in 1 hour supernatants), ratio 17.1 (geometric MFI): -3000 | Bystander effect (pSTAT4 geometric MFI on GFP+ T cells in 1 hour supernatants), ratio 34.1 (geometric MFI): -3720 | Transactivation (pSTAT4 geometric MFI on GFP+ cells in co-culture), ratio 1.1 (geometric MFI): 4500 | Transactivation (pSTAT4 geometric MFI on GFP+ cells in co-culture), ratio 2.1 (geometric MFI): 6100 | Transactivation (pSTAT4 geometric MFI on GFP+ cells in co-culture), ratio 4.3 (geometric MFI): 7170 | Transactivation (pSTAT4 geometric MFI on GFP+ cells in co-culture), ratio 8.5 (geometric MFI): 8200 | Transactivation (pSTAT4 geometric MFI on GFP+ cells in co-culture), ratio 17.1 (geometric MFI): 7720 | Transactivation (pSTAT4 geometric MFI on GFP+ cells in co-culture); table head says ratio of 64, paragraph 725 gives 34.1 (geometric MFI): 7700

Substance: membrane bound IL12 encoded by OT-002096 (B7.1 TM domain and IgG1 CH2-CH3 domain as a hinge domain) (ligand)
Bystander effect (pSTAT4 geometric MFI on GFP+ T cells in 1 hour supernatants), ratio 2.4 (geometric MFI): 405 | Bystander effect (pSTAT4 geometric MFI on GFP+ T cells in 1 hour supernatants), ratio 4.8 (geometric MFI): 1050 | Bystander effect (pSTAT4 geometric MFI on GFP+ T cells in 1 hour supernatants), ratio 9.7 (geometric MFI): 1650 | Bystander effect (pSTAT4 geometric MFI on GFP+ T cells in 1 hour supernatants), ratio 19.4 (geometric MFI): 1470 | Bystander effect (pSTAT4 geometric MFI on GFP+ T cells in 1 hour supernatants), ratio 38.7 (geometric MFI): 1470 | Bystander effect (pSTAT4 geometric MFI on GFP+ T cells in 1 hour supernatants), ratio 77.5 (geometric MFI): 955 | Transactivation (pSTAT4 geometric MFI on GFP+ cells in co-culture), ratio 2.4 (geometric MFI): 2620 | Transactivation (pSTAT4 geometric MFI on GFP+ cells in co-culture), ratio 4.8 (geometric MFI): 3250 | Transactivation (pSTAT4 geometric MFI on GFP+ cells in co-culture), ratio 9.7 (geometric MFI): 4030 | Transactivation (pSTAT4 geometric MFI on GFP+ cells in co-culture), ratio 19.4 (geometric MFI): 4180 | Transactivation (pSTAT4 geometric MFI on GFP+ cells in co-culture), ratio 38.7 (geometric MFI): 4860 | Transactivation (pSTAT4 geometric MFI on GFP+ cells in co-culture); table head says ratio of 64, paragraph 725 gives 77.5 (geometric MFI): 5220

Substance: membrane bound IL12 encoded by OT-002112 (B7.1 TM domain and FcgammaR2b (Fcgr2b) as a hinge domain) (ligand)
Bystander effect (pSTAT4 geometric MFI on GFP+ T cells in 1 hour supernatants), ratio 1.3 (geometric MFI): -1 | Bystander effect (pSTAT4 geometric MFI on GFP+ T cells in 1 hour supernatants), ratio 2.5 (geometric MFI): -818 | Bystander effect (pSTAT4 geometric MFI on GFP+ T cells in 1 hour supernatants), ratio 5 (geometric MFI): -232 | Bystander effect (pSTAT4 geometric MFI on GFP+ T cells in 1 hour supernatants), ratio 10.1 (geometric MFI): -988 | Bystander effect (pSTAT4 geometric MFI on GFP+ T cells in 1 hour supernatants), ratio 20.2 (geometric MFI): -1400 | Bystander effect (pSTAT4 geometric MFI on GFP+ T cells in 1 hour supernatants), ratio 40.4 (geometric MFI): -2660 | Transactivation (pSTAT4 geometric MFI on GFP+ cells in co-culture), ratio 1.3 (geometric MFI): 5110 | Transactivation (pSTAT4 geometric MFI on GFP+ cells in co-culture), ratio 2.5 (geometric MFI): 6070 | Transactivation (pSTAT4 geometric MFI on GFP+ cells in co-culture), ratio 5 (geometric MFI): 7760 | Transactivation (pSTAT4 geometric MFI on GFP+ cells in co-culture), ratio 10.1 (geometric MFI): 8120 | Transactivation (pSTAT4 geometric MFI on GFP+ cells in co-culture), ratio 20.2 (geometric MFI): 8420 | Transactivation (pSTAT4 geometric MFI on GFP+ cells in co-culture); table head says ratio of 64, paragraph 725 gives 40.4 (geometric MFI): 8020

Substance: secreted IL12 encoded by OT-001356 (ORF2: p40 signal sequence; p40 (23-328 of WT); Linker ((G4S)3); p35 (57-253 of WT); BamHI (GS)) (ligand)
Bystander effect (pSTAT4 geometric MFI on GFP+ T cells in 1 hour supernatants), CAR-IL12+:GFP+ ratio 73.9 (geometric MFI): -2620 | Bystander effect (pSTAT4 geometric MFI on GFP+ T cells in 1 hour supernatants), ratio 2.3 (geometric MFI): -1090 | Bystander effect (pSTAT4 geometric MFI on GFP+ T cells in 1 hour supernatants), ratio 4.6 (geometric MFI): -518 | Bystander effect (pSTAT4 geometric MFI on GFP+ T cells in 1 hour supernatants), ratio 9.2 (geometric MFI): -86 | Bystander effect (pSTAT4 geometric MFI on GFP+ T cells in 1 hour supernatants), ratio 18.5 (geometric MFI): -226 | Bystander effect (pSTAT4 geometric MFI on GFP+ T cells in 1 hour supernatants), ratio 37 (geometric MFI): -1400 | Transactivation (pSTAT4 geometric MFI on GFP+ cells in co-culture), ratio 2.3 (geometric MFI): 2840 | Transactivation (pSTAT4 geometric MFI on GFP+ cells in co-culture), ratio 4.6 (geometric MFI): 4370 | Transactivation (pSTAT4 geometric MFI on GFP+ cells in co-culture), ratio 9.2 (geometric MFI): 5570 | Transactivation (pSTAT4 geometric MFI on GFP+ cells in co-culture), ratio 18.5 (geometric MFI): 6420 | Transactivation (pSTAT4 geometric MFI on GFP+ cells in co-culture), ratio 37 (geometric MFI): 6940 | Transactivation (pSTAT4 geometric MFI on GFP+ cells in co-culture); table head says CAR-IL12+:GFP+ ratio of 64, paragraph 725 gives 73.9 (geometric MFI): 6450

Results, then the substance that gave them:

Bystander effect (pSTAT4 geometric MFI on GFP+ T cells in 1 hour supernatants), ratio 2.4 (geometric MFI): -642 | Bystander effect (pSTAT4 geometric MFI on GFP+ T cells in 1 hour supernatants), ratio 4.7 (geometric MFI): -566 | Bystander effect (pSTAT4 geometric MFI on GFP+ T cells in 1 hour supernatants), ratio 9.5 (geometric MFI): -1130 | Bystander effect (pSTAT4 geometric MFI on GFP+ T cells in 1 hour supernatants), ratio 18.9 (geometric MFI): -1380 | Bystander effect (pSTAT4 geometric MFI on GFP+ T cells in 1 hour supernatants), ratio 37.9 (geometric MFI): -2880 | Bystander effect (pSTAT4 geometric MFI on GFP+ T cells in 1 hour supernatants), ratio 75.8 (geometric MFI): -3530 | Transactivation (pSTAT4 geometric MFI on GFP+ cells in co-culture), ratio 2.4 (geometric MFI): 5190 | Transactivation (pSTAT4 geometric MFI on GFP+ cells in co-culture), ratio 4.7 (geometric MFI): 6680 | Transactivation (pSTAT4 geometric MFI on GFP+ cells in co-culture), ratio 9.5 (geometric MFI): 7760 | Transactivation (pSTAT4 geometric MFI on GFP+ cells in co-culture), ratio 18.9 (geometric MFI): 8320 | Transactivation (pSTAT4 geometric MFI on GFP+ cells in co-culture), ratio 37.9 (geometric MFI): 8030 | Transactivation (pSTAT4 geometric MFI on GFP+ cells in co-culture); table head says ratio of 64, paragraph 725 gives 75.8 (geometric MFI): 8090
Substance: membrane bound IL12 encoded by OT-002011 (B7.1 transmembrane domain and short CD8 hinge domain) (ligand)

Bystander effect (pSTAT4 geometric MFI on GFP+ T cells in 1 hour supernatants), ratio 1.5 (geometric MFI): -59 | Bystander effect (pSTAT4 geometric MFI on GFP+ T cells in 1 hour supernatants), ratio 2.9 (geometric MFI): 852 | Bystander effect (pSTAT4 geometric MFI on GFP+ T cells in 1 hour supernatants), ratio 5.9 (geometric MFI): 437 | Bystander effect (pSTAT4 geometric MFI on GFP+ T cells in 1 hour supernatants), ratio 11.8 (geometric MFI): -58 | Bystander effect (pSTAT4 geometric MFI on GFP+ T cells in 1 hour supernatants), ratio 23.6 (geometric MFI): -1010 | Bystander effect (pSTAT4 geometric MFI on GFP+ T cells in 1 hour supernatants), ratio 47.1 (geometric MFI): -4240 | Transactivation (pSTAT4 geometric MFI on GFP+ cells in co-culture), ratio 1.5 (geometric MFI): 4660 | Transactivation (pSTAT4 geometric MFI on GFP+ cells in co-culture), ratio 2.9 (geometric MFI): 6540 | Transactivation (pSTAT4 geometric MFI on GFP+ cells in co-culture), ratio 5.9 (geometric MFI): 7210 | Transactivation (pSTAT4 geometric MFI on GFP+ cells in co-culture), ratio 11.8 (geometric MFI): 7660 | Transactivation (pSTAT4 geometric MFI on GFP+ cells in co-culture), ratio 23.6 (geometric MFI): 7630 | Transactivation (pSTAT4 geometric MFI on GFP+ cells in co-culture); table head says ratio of 64, paragraph 725 gives 47.1 (geometric MFI): 5460
Substance: membrane bound IL12 encoded by OT-002111 (B7.1 TM domain and B7.1 C2 domain as a hinge domain) (ligand)
